B1: SNAP91 (parent)
chain: FATASAAVPVSTSKPSSDLLDLQP

These results are taken from the supplement of paper PMC10567573.
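Also: lentivirally expressed fusions sorted by FACS into six bins by GFP to DsRed ratio, PSI derived from sequencing read proportions per bin multiplied by bin number.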

Variants of B1 are the subject of this series. Nature of the series: protein stability index of a GFP-peptide fusion (GPS, HEK-293T) (PSI 1-6); higher = more stable. Conditions: c terminus: a fixed tail appended.
Take FATASAAVPVSTSKPSSDLLDEQP [L22E]: the protein stability index was determined as 4.76.
Regarding FATASAAVPVSTSKPSSDLLDGQP [L22G], the protein stability index turned out to be 3.93.
Take FATASAAVPVSTSKPSSDLLDWQP [L22W]: the protein stability index came to 2.96.
For FATASAAVPVSTSKPSSDLLDVQP [L22V], the protein stability index was 3.85.
Take FATASAAVPVSTSKPSSDLLDTQP [L22T]: the protein stability index was determined as 4.3.
Turning to FATASAAVPVSTSKPSSDLLDYQP [L22Y], the protein stability index is 3.99.
Regarding FATASAAVPVSTSKPSSDLLDCQP [L22C], the protein stability index stood at 3.84.
As for FATASAAVPVSTSKPSSDLLDDQP [L22D], the protein stability index worked out at 4.22.
With FATASAAVPVSTSKPSSDLLDAQP [L22A] the figure was 4.49; with FATASAAVPVSTSKPSSDLLDNQP [L22N], 4.4.
With FATASAAVPVSTSKPSSDLLDSQP [L22S], the protein stability index amounted to 4.16.
On to FATASAAVPVSTSKPSSDLLDKQP [L22K], for which the protein stability index amounted to 4.16.
On to FATASAAVPVSTSKPSSDLLDMQP [L22M], for which the protein stability index stood at 3.87.
As to FATASAAVPVSTSKPSSDLLDPQP [L22P], the protein stability index came to 4.4.
As for FATASAAVPVSTSKPSSDLLDIQP [L22I], the protein stability index stood at 3.71.
Consider FATASAAVPVSTSKPSSDLLDHQP [L22H], for which the protein stability index was found to be 4.07.
Next, FATASAAVPVSTSKPSSDLLDQQP [L22Q]: 4.3.
Take FATASAAVPVSTSKPSSDLLDRQP [L22R]: the protein stability index was found to be 4.14.
Turning to FATASAAVPVSTSKPSSDLLDFQP [L22F], the protein stability index was found to be 3.59.
As to FATASAAVPVSTSKPLSDLLDLQP [S16L], the protein stability index came to 2.83.
For FATASAAVPVSTSKPKSDLLDLQP [S16K], the protein stability index stood at 3.43.
With FATASAAVPVSTSKPFSDLLDLQP [S16F] the figure was 2.99; with FATASAAVPVSTSKPGSDLLDLQP [S16G], 3.57.
Take FATASAAVPVSTSKPMSDLLDLQP [S16M]: the protein stability index was determined as 3.43.
With FATASAAVPVSTSKPVSDLLDLQP [S16V], the protein stability index stood at 3.6.
With FATASAAVPVSTSKPRSDLLDLQP [S16R] the figure was 3.3.
Take FATASAAVPVSTSKPHSDLLDLQP [S16H]: the protein stability index is 3.71.
Take FATASAAVPVSTSKPTSDLLDLQP [S16T]: the protein stability index came out at 3.03.
With FATASAAVPVSTSKPISDLLDLQP [S16I] the figure was 3.24; with FATASAAVPVSTSKPASDLLDLQP [S16A], 4.02.
Next, FATASAAVPVSTSKPNSDLLDLQP [S16N]: 3.81.
Take FATASAAVPVSTSKPESDLLDLQP [S16E]: the protein stability index turned out to be 3.87.
As for FATASAAVPVSTSKPWSDLLDLQP [S16W], the protein stability index worked out at 1.54.
Consider FATASAAVPVSTSKPYSDLLDLQP [S16Y], for which the protein stability index worked out at 3.08.
Take FATASAAVPVSTSKPCSDLLDLQP [S16C]: the protein stability index is 3.36.
FATASAAVPVSTSKPPSDLLDLQP [S16P]: the protein stability index was 3.5.
With FATASAAVPVSTSKPQSDLLDLQP [S16Q], the protein stability index stood at 3.93.
Consider FATASAAVPVSTSKPDSDLLDLQP [S16D], for which the protein stability index is 4.24.
For FATASAAVPVSTSKPSTDLLDLQP [S17T], the protein stability index amounted to 4.21.
Take FATASAAVPVSTSKPSKDLLDLQP [S17K]: the protein stability index came out at 3.47.
Turning to FATASAAVPVSTSKPSFDLLDLQP [S17F], the protein stability index is 2.51.
Regarding FATASAAVPVSTSKPSNDLLDLQP [S17N], the protein stability index turned out to be 3.85.
With FATASAAVPVSTSKPSCDLLDLQP [S17C], the protein stability index turned out to be 3.41.
As for FATASAAVPVSTSKPSGDLLDLQP [S17G], the protein stability index is 3.68.
Turning to FATASAAVPVSTSKPSEDLLDLQP [S17E], the protein stability index worked out at 4.13.
Take FATASAAVPVSTSKPSDDLLDLQP [S17D]: the protein stability index was 4.22.
As to FATASAAVPVSTSKPSLDLLDLQP [S17L], the protein stability index is 3.35.
With FATASAAVPVSTSKPSQDLLDLQP [S17Q], the protein stability index worked out at 3.72.
Regarding FATASAAVPVSTSKPSRDLLDLQP [S17R], the protein stability index came out at 3.25.
FATASAAVPVSTSKPSMDLLDLQP [S17M]: the protein stability index worked out at 3.56.
As to FATASAAVPVSTSKPSADLLDLQP [S17A], the protein stability index was found to be 3.68.
Take FATASAAVPVSTSKPSVDLLDLQP [S17V]: the protein stability index worked out at 3.47.
With FATASAAVPVSTSKPSHDLLDLQP [S17H] the figure was 3.66.
For FATASAAVPVSTSKPSWDLLDLQP [S17W], the protein stability index is 3.31.
For FATASAAVPVSTSKPSIDLLDLQP [S17I], the protein stability index worked out at 2.88.
As for FATASAAVPVSTSKPSPDLLDLQP [S17P], the protein stability index stood at 3.79.
Consider FATASAAVPVSTSKPSYDLLDLQP [S17Y], for which the protein stability index stood at 3.2.
For FATASAAVPVSTMKPSSDLLDLQP [S13M], the protein stability index is 3.67.
As for FATASAAVPVSTWKPSSDLLDLQP [S13W], the protein stability index came out at 2.67.
Take FATASAAVPVSTVKPSSDLLDLQP [S13V]: the protein stability index stood at 3.52.
As for FATASAAVPVSTRKPSSDLLDLQP [S13R], the protein stability index was 3.94.
As to FATASAAVPVSTTKPSSDLLDLQP [S13T], the protein stability index amounted to 3.38.
As to FATASAAVPVSTQKPSSDLLDLQP [S13Q], the protein stability index amounted to 3.8.
For FATASAAVPVSTNKPSSDLLDLQP [S13N], the protein stability index was 3.66.
For FATASAAVPVSTPKPSSDLLDLQP [S13P], the protein stability index was determined as 3.83.
Turning to FATASAAVPVSTYKPSSDLLDLQP [S13Y], the protein stability index is 3.36.
Next, FATASAAVPVSTSKPSSMLLDLQP [D18M]: 2.87; FATASAAVPVSTSKPSSTLLDLQP [D18T]: 3.17.
Turning to FATASAAVPVSTSKPSSNLLDLQP [D18N], the protein stability index came to 3.14.
For the variant FATASAAVPVSTSKPSSHLLDLQP [D18H], the protein stability index turned out to be 3.04.
As for FATASAAVPVSTSKPSSQLLDLQP [D18Q], the protein stability index was 3.19.
Next, FATASAAVPVSTSKPSSWLLDLQP [D18W]: 2.13; FATASAAVPVSTSKPSSALLDLQP [D18A]: 3.44.
Next, FATASAAVPVSTSKPSSFLLDLQP [D18F]: 2.23.
With FATASAAVPVSTSKPSSVLLDLQP [D18V] the figure was 3.17; with FATASAAVPVSTSKPSSPLLDLQP [D18P], 3.3; with FATASAAVPVSTSKPSSILLDLQP [D18I], 3.37.
For the variant FATASAAVPVSTSKPSSLLLDLQP [D18L], the protein stability index is 2.77.
With FATASAAVPVSTSKPSSKLLDLQP [D18K], the protein stability index is 2.98.
Take FATASAAVPVSTSKPSSCLLDLQP [D18C]: the protein stability index came to 3.42.
For FATASAAVPVSTSKPSSSLLDLQP [D18S], the protein stability index came to 2.99.
As for FATASAAVPVSTSKPSSELLDLQP [D18E], the protein stability index was 3.98.
For the variant FATASAAVPVSTSKPSSYLLDLQP [D18Y], the protein stability index came out at 3.37.
With FATASAAVPVSTSKPSSRLLDLQP [D18R], the protein stability index was 2.84.
With FATASAAVPVSTSKPSSGLLDLQP [D18G], the protein stability index was determined as 3.42.
For the variant FATASAAVPVSTSKPSSDCLDLQP [L19C], the protein stability index worked out at 4.06.
In the case of FATASAAVPVSTSKPSSDTLDLQP [L19T], the protein stability index was 4.22.
For the variant FATASAAVPVSTSKPSSDPLDLQP [L19P], the protein stability index is 4.39.
Take FATASAAVPVSTSKPSSDKLDLQP [L19K]: the protein stability index amounted to 3.79.
FATASAAVPVSTSKPSSDALDLQP [L19A]: the protein stability index stood at 4.02.
For the variant FATASAAVPVSTSKPSSDRLDLQP [L19R], the protein stability index amounted to 3.98.
With FATASAAVPVSTSKPSSDYLDLQP [L19Y], the protein stability index worked out at 3.56.
Next, FATASAAVPVSTSKPSSDSLDLQP [L19S]: 4.35; FATASAAVPVSTSKPSSDMLDLQP [L19M]: 3.81.
